Assay results from PMC12051234, “NrdR in Streptococcus and Listeria spp.: DNA Helix Phase Dependence of the Bacterial Ribonucleotide Reductase Repressor” (Molecular Microbiology, 2025).

Target: T1, EcoNrdR (Escherichia coli) (UniProt P0A8D0)
T1 sequence: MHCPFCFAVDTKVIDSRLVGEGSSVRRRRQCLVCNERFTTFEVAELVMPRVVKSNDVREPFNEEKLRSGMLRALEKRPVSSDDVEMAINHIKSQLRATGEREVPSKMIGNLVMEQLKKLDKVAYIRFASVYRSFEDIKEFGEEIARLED
Assay: MST
Details: temperature not stated. Lmo: 25 mM Bis-Tris propane pH 6.5, 100 mM KCl, 5 mM MgCl2, 5% glycerol, 1 mM DTT, 0.05% Tween 20, one nucleotide 1 mM or two at 0.

Sequence: ACTATTTGCTATATATTGTGTGGTTGAATCTTTTTTCAACTACATCTAGTATCTCTG (double strand) [Eco nrdHIEF wild type]
- Kd: 130 nM
